US20160208004A1 (published 2016)
Changes are numbered by the printed parent chain.

T1: IL-17RB.Fc (extracellular domain of human IL-17RB fused to the Fc region of human IgG) (human, UniProt Q9NRM6 18-292)
T1 construct: extracellular domain; also called HuIL-17RB: Fc; IL-17RB Fe; not shown: Fc region of human IgG1
T1 sequence (looked up): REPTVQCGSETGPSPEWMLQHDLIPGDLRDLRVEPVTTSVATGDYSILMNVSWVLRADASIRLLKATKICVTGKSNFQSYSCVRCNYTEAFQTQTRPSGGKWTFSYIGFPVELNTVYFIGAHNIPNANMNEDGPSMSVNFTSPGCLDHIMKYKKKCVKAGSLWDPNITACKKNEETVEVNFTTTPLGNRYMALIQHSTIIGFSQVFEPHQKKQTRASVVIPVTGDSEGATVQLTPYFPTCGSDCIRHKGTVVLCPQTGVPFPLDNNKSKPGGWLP

B1: Human IL-17RD.HIS (receptor, UniProt Q8NFM7 27-299, looked up)
chain: AGGSGRARGADTCGWRGVGPASRNSGLYNITFKYDNCTTYLNPVGKHVIADAQNITISQYACHDQVAVTILWSPGALGIEFLKGFRVILEELKSEGRQCQQLILKDPKQLNSSFKRTGMESQPFLNMKFETDYFVKVVPFPSIKNESNYHPFFFRTRACDLLLQPDNLACKPFWKPRNLNISQHGSDMQVSFDHAPHNFGFRFFYLHYKLKHEGPFKRKTCKQEQTTETTSCLLQNVSPGDYIIELVDDTNTTRKVMHYALKPVHSPWAGPIR
notes: R&D Systems product; not shown: HIS tag
B2: 1.185.1 (antibody, V domains shown)
VH: QVQLVESGGGVVQPGRSLRLSCAASGINFSSYGMHWVRQAPGKGLEWVAVIWYDGSNKHYADSVKGRFTISRDNSKNTLYLQMNSLRAEDTAVYYCARDTGVYWGQGTLVTVSS
VL: not shown
B3: 4.357.1 (antibody, V domains shown)
VH: QVQLVQSGAEVKKPGASVKVSCKASGYTLTSYGISWVRQAPGQGLEWMGWISTYKGNTNYAQKLQGRVTMTTDTSTSTAYMELRSLRSDDTAVYYCARKQLVFDYWGQGTLVTVSS
VL: EIVMTQSPATLSVSPGERATLSCRASQSISSSLAWYQQKPGQAPRLLIYGASTRATGIPARFSGSGSGTEFTLTISSLQSENFAVYYCQQYDNWPLTFGGGTKVEIK
B4: 4.393.1 (antibody, V domains shown)
VH: B3 VH with L29F, T53A, K55N, N59K, A79V
VL: B3 VL with S31T, A51T, N82D, Y87F, N93I
B5: 3.1545.1 (antibody, V domains shown)
VH: EVQLVESGGGSVQPGGSLRLSCAASGFTFSSYSMNWVRQAPGKGLEWVSIISSRSSIIHYADSVKGRFTISRDNAKNSLYLQMNSLRDEDTAVYYCARPKVGGGMDVWGQGTTVTVSS
VL: DIQMTQSPSSLSASVGDRVTITCRASQGISNYLAWYQQKPGKFPELLIYAASTLQSGVPSRFSGSGSGTDFTLTISSLQPEDVATYYCQKYNRAPFTFGPGTKVDIK
B6: 2.67.1 (antibody, V domains shown)
VH: QVQLVQSGAEVKKPGASVKVSCKASGYTLTRYGISWVRQAPGQGLEWMGWISAYNGNTNYAQKLQGRVTMTTDTSTSTAYMELRSLRSDDTAVYYCARRDYDILTGYYNGFDPWGQGTLVTVSS
VL: DIQMTQSPSSLSASVGDRVTITCRASQGIRNDLGWYQQKPGKAPKRLIYAASSLQSGVPSRFSGSGSGTEFTLTISSLQPEDFATYYCLQHKSYPLTFGGGTKVEIK
B7: 2.98.1 (antibody, V domains shown)
VH: B6 VH
VL: B6 VL
B8: 2.225.1 (antibody, V domains shown)
VH: B6 VH with A9V
VL: B6 VL
B9: 2.46.1 (antibody, V domains shown)
VH: B6 VH with Y27N, L29F, R31G, K63N
VL: B6 VL

Tests used:
[1] = target: T2, IL-17RA.Fc (extracellular domain of human IL-17RA fused to the Fc region of human IgG) (human, UniProt Q96F46 33-320); test: co-immunoprecipitation on Protein G beads, Western blot
T2 construct: extracellular domain; also called IL-17RA Fe; not shown: Fc region of human IgG1

[2] = target: T1, IL-17RB.Fc (extracellular domain of …); test: as above
human IL-17RA = human IL-17RA (human, UniProt Q96F46 33-866); test: cell-based or functional assay

| Binder | binding result [1] | binding result [2] | % Inhib. of IL-5 production, TSLP treated human PBMC + IL-2 + IL-25, Expt. 1 (human IL-17RA) | % Inhib. of IL-5 production, TSLP treated human PBMC + IL-2 + IL-25, Expt. 2 (human IL-17RA) | % Inhib. of IL-5 production, TSLP treated human PBMC + IL-2 + IL-25, Expt. 3 (human IL-17RA) |
| --- | --- | --- | --- | --- | --- |
| B1 | no binding (tested: 2 micrograms of each protein) | no binding (tested: 2 micrograms of each protein) | – | – | – |
| B2 | – | – | 0% | 41% | 9% |
| B3 | – | – | 0% | – | 11% |
| B4 | – | – | 28% | 72% | 45% |
| B5 | – | – | 0% | 43% | 0% |
| B6 | – | – | 0% | 13% | 3% |
| B7 | – | – | 0% | 79% | 0% |
| B8 | – | – | 0% | – | 0% |
| B9 | – | – | 0% | 6% | 0% |
